Here are results for 69 sequences from the domain aggregation screens of Martell et al. (2025).

This data set is described as follows: soluble fraction after stress (log2 fold change); higher = more stays soluble; pooled small domains, quantitative proteomics. As to conditions: stress: pH 4. The essentials: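 Values are on a log2 scale, where higher means more of the domain stayed soluble after pH 4 stress. They are fold changes in the soluble amount of each domain from pooled custom libraries, measured by high-throughput quantitative proteomics. The fold change is taken to reflect aggregation propensity.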

For “HMAGQWQQDQNGWKYKTDNGDHMKNTWYQDSDSRWYYFGPDGYMKSSTMTPDGYVVGSDGAWIE”, the “soluble fraction (log2)” value is -1.63. Under “HMAGSGDLNAKYLASIPAPMKAKILKAVANHYGVSISEFEEEVTDKDAEALYEYIPTRSMAVQVLRDMKG” stands 0.199; under “HMAGSGLPVPRFVSLADDRVNARAGPGFRFPINWVYLRKGFPVEVVDEFGPWRRIRDIDGVAAWIHLSMLS”, -0.848. Under “HMAGTAFPVRIMLKGIDRIGLLNEITGYISVAMGVNMRKLNLSTEDGIFEGYIDMLVHDRTVLESMIDNL” stands 0.22; under “HMAGTELASIKEIQSLVDRSEEALSARNFFWPKDKSESMLLSFRNMFSRLKLTKMDVQIFHGIFKVMEKS”, 0.0341.

With “HMAGVSVTSLTTFWRLAADTPDTPSGADDPSGWSRTEPSIPDGYEGKLYRTIRTIMSDGTATWTSPD”, the “soluble fraction (log2)” value stood at 0.0531. In the case of “HMAGYDTYMVDRDAELLPWLLETLQRESRSKVKATLQGNGIKVNGKRVTQFNYPLKAGMKVSVSKSK”, the “soluble fraction (log2)” value worked out at 0.129. Turning to “HMAHILDLMELKQILRLHMDGLSNRRISDTLGIHRNTINSYVSQFKASKHGIEELLKLSDYELAQLFP”, the “soluble fraction (log2)” value was -1.39. “HMAHRYQQIADDLGRRVEAGEFAAGRLLPSEATLSGQYKASRVTVRKALEALRTDGLVESRQGFGWFVAAD”: the “soluble fraction (log2)” value worked out at 0.262.

Turning to “HMAIADQPISAEHFDKLRQVLNSNTQETIASAKQHWASISNNAEFTNENVTRTLLEEMLAFIKSAS”, the “soluble fraction (log2)” value is -0.887. For “HMAIDVQELARTRLRSLRTTLGYSLDELAARTHLSPSTISRLETGKRSLSLDVVVPLAQALHVSLDVLFEA” the value was -0.666. Turning to “HMAIEGIFEKYQRRSDQLIPILQDVQKEFGYIAPESVRHISRYLRISENQIFGVSSFYAQFRFT”, the “soluble fraction (log2)” value was -0.422. For “HMAIGTDPETGISVVADGTDFIWTRSGATSTIFLRLDSENSYILNVKQGDFEVIDYELGEGQENAINIDQS” the value was -0.463.

Consider “HMAIPEVDPAKQGVSATQLAALDALAHRNAGEGRVAGMVNVVIRNGEIVYYKATGPRHIDGGAPLKSTDLF”, for which the “soluble fraction (log2)” value turned out to be 0.0394. With “HMAIQGVRLYERTLETGDPWLDRPLSTLSTGTRLIILVRRGGDVLIPKGDTVLLAGDTLVINDS”, the “soluble fraction (log2)” value is -1.94. Turning to “HMAIRPDAAVSSHAVKQRLQSLIRAEDPAAPLSDEALRLALSALGIGVSRRAVAKYRAEMGIPSSSQRKK”, the “soluble fraction (log2)” value amounted to 0.168. In the case of “HMAISQYGSQSDEVTKIQTRLKAWGYFDGPVTAYYGSQTTEAVKKFQQKHGLSATGVADAKTLELIGLP”, the “soluble fraction (log2)” value was determined as 0.056.

In the case of “HMAITLEQFLSVNPHIRNNLYGNAVELVKDKDFSVLSDKLKASSKWANEPSLYKILSHYDEIIS”, the “soluble fraction (log2)” value was determined as 0.207.

Regarding “HMAKDSQSADVLQAIFDGSKVLNGLALDQDMRWDLINGLVMSGRLGVEAIEAEAAKLAKLVEELEFR”, the “soluble fraction (log2)” value is -1.21. For “HMAKETLRANIKDYIQKQIASGVYRPGDRIVETQLAREMNVSQAPVREAILELVSLGLLEERPYSGHMVRQ”, the “soluble fraction (log2)” value was -0.843.

For the sequence “HMAKIKVFELKNQINSLIKNKIESKDIIDFIETNFGVKKSHSSALEENEANFIKNYFVHADKA”, the “soluble fraction (log2)” value was -0.141. Under “HMAKIPASTVVEIDGAPVVVAVRVNARARSYRLSIPHSGGPLLTLPPHGKWAEAEAFLLRHHNWLAARLHR” stands 0.22. For “HMAKQEPTDNGYDIYKVTASVLNVRNGAGTSYAVAYQLSKEDYVEVVSIDKGWAKLKDGKYVSADWITLYK” the value was -0.596; for “HMAKRINVKLIMELSAGGLTQNEIASSRHFSKTSVNLVLKTARELNVSAADLREMSPEEAYRLFFPEK”, -0.0837; for “HMAKRKTEKTSVLEEIDGVGKARARALLARFGGLSGVKAASPEELRTVRGITPEIAENIRRYFQ”, 0.134. For “HMAKRMRNPNGYGSIVKLSGNRRNPYMVKVNTHMDERYYPVYDILGYYPTWADASIALAKYNDDPYNVS” the value was 0.0269; for “HMAKRQATIVYEGTNVRSGPSTSSAIVKRTGKGESYPIVSTKGDWYEIKLSNGDSAYVASWVVQTVD”, -0.871. As to “HMAKRYFVTTGVRVRTKPDTANSEVLTVLDEGSEIDYKGDYNNEWVKINYNGQEAYIAKQYVRSEE”, the “soluble fraction (log2)” value was -0.13. Under “HMAKSDLNYLDFKSKLEAGEIAKASVIRNEDTFKVTLQNGEVYNVTSPDYEDFRKELLEAGVDIQVSK” stands 0.022; under “HMAKSMRHLIVPSRETSLWRDKLSTNGWLSKGYGIHNLDDYRGIPLNETAPKIIEGLEITELEPIS”, -0.755.

As for “HMAKTALEQAQAMVAAYVAAEQQILLGKEVRMGGPGIDRWLRFEDLQEVRAGRKEWESTVTRLQNTAA”, the “soluble fraction (log2)” value was -0.769. Turning to “HMAKTGMDALVGRRVVLTKAIAGEGEGLVAVDGDVWRATSPAGSAIPKGTEVRITGYRSIVLEVEPI”, the “soluble fraction (log2)” value turned out to be 0.139. Under “HMAKYEVVAKDIISRIKQNEFETTLKLPTEDEMIEYYQVSRNTVRSALKLLTSQGIIFSRQGSGFYIRQRS” stands -0.117; under “HMALALSGVDLNRNRLTISWQTSKGVSYRVQRSSDLQSWTDVGAERLGNGNRLSHTQALNTESAFLRVII”, -0.674; under “HMALEGTLARVSVRIPESGVGEIIFSLGGVRRSEAARSVSGRAIPRGTEVVILSYERGIATVQPYEELLTN”, -0.256.

Regarding “HMALEVPGIAKDKIYRIFGQLYERQQKWEDAIDYYNRAVFFTLSGTDMILYQEDLSRVKQKISL”, the “soluble fraction (log2)” value is -0.152. As for “HMALKRVAPQGEDKLSAQLDGVEFDKLIPWLGMLEHDHRIAIVNLSIDRANATGLVNARVIL”, the “soluble fraction (log2)” value came out at 0.251. For “HMALKSGVIAHAVDDAVMRGLNVFTVSDDGSIVSMKDNDIVLGKDGKSPYSVSEWLEELKPNVPHWFG” the value was -0.256. Regarding “HMALKSYEDMVGKTGVAYTVLRPSGKVIINDELFDATARSGMIEKGNEVIIYDYKNAQLIVEK”, the “soluble fraction (log2)” value is -0.518.

“HMALPASLSPREREIVSLISQGKTNSEIASLLYISVPTVKTHISNIFQKTGVSNRTSLLNRLRMS”: the “soluble fraction (log2)” value is -0.0542. Turning to “HMALPHEIKQKWLEEIMTMLRSSDSVTINKVYLHFPENKSHWVDEILTDLSNTHMITRQHDFIRLKN”, the “soluble fraction (log2)” value was -0.221.

“HMALQDKYKQLVDTATASGVANLQVREQDGVLYIDGEAPSGSVKDQLWDIYGKIDPNFLSGDVVMNINV”: the “soluble fraction (log2)” value is -1.12. For “HMALQLPFSFAKRHKVLVESAHEPVKVYHTPSTDFAVFAEVRRFLDQTFVLEEIAENRFEELLTSSFQRD” the value was -1.46. For “HMALSETIYRLRTEHGLSQGDLAAELDVSRQSISKWETGSSVPELDKLVAMSRLFGVSLDELVLGE”, the “soluble fraction (log2)” value is -0.584. For “HMALSLPDDMTIVRKDGSSLEVRLKSRTVTEIHFERISDSETFQFSIDQLDETTRELVEQYPVM” the value was -0.407.

In the case of “HMALTAEVLRSLIKHHGLGQSIQRTAKAVGLSASTVKKYFDRIAAANLTWQEAKSRTQEELIASLQPT”, the “soluble fraction (log2)” value turned out to be 0.107. Regarding “HMALTARDLGLTHRQADVLHLVLQGKPVKLIARDLGLAEGTVKSHVSAVLRALNVTTRTQAIVAAGRLGLM”, the “soluble fraction (log2)” value was not below 0.43. Take “HMAMDITLPLAEVRRQSLEQIERQYLNELMSKHLGRINRAAEAAGITTRQLHKLLTKYSIRKEDFK”: the “soluble fraction (log2)” value turned out to be 0.0354.

Consider “HMAMESDELETLVDQLIVDHPDEWSRFVGGDDGDRKKMQGFFTGQIMKATKGQADGRAVAQLLGQKSA”, for which the “soluble fraction (log2)” value was -0.337.

“HMAMLSKREAEILKLTAKGHSSTDIAQRLTISVNTVEFHRRRIMQKLNAANVAEAVGKAAELGLFF”: the “soluble fraction (log2)” value is -0.47. For “HMAMSAGEVVERIREHVGHPATIKELMRVLAIPNEERYRFRRRIKQLVEAGELIRIRGNRYGLADR” the value was not below 0.43.

As to “HMAMTITKIEKTSQQKIYYFTDSGRVFKKMSDRSATIAVDDRVELEGGVLGSKFFVTANGSRVKVKEV”, the “soluble fraction (log2)” value stood at 0.0344. Consider “HMAMYSREKLKKLREDRGLTQYELAKIAGISVVTLNKIESSDSAKPFVKTLNKIAQALGVGIDELS”, for which the “soluble fraction (log2)” value was not below 0.43.

Turning to “HMAMYYVIGGDGQQYGPIDEATVRGWLGEGRVSAASLSFKTGEAQWIPLRDRPELADVLATA”, the “soluble fraction (log2)” value was -0.311.

On to “HMANKLSEQIYGSILKDIVNGVYAPREFISEAQIAAKYGVSKAPVKEAMHILASEGFLLSYPKRGYMVN”, for which the “soluble fraction (log2)” value stood at 0.109.

For “HMANKQLQEKLKNYISENGSLSSAAKAIGLSPATLSTYLKDKYEGNVANVETRLTEIFETVEAANNLL”, the “soluble fraction (log2)” value is -0.313.

For the sequence “HMANKTISMTTLKLVIQQLSKGISRQSISAQYHISRNTIKKYEKRIKAMDMKIEDILKLSDEEISNLLQ”, the “soluble fraction (log2)” value was -0.273. For “HMANLNFDMSQIVASRYQEKAAELGVTAPSLARTDYNTQEQATYEFVAREIIADYYDDRVAPFNDLIPE” the value was -0.967; for “HMANNPISMIKIRQILRLHIQGRSKLQIAAQTGISRNTLKKYLKEFEASKLTYDEISELSDKDLEDLFIK”, 0.225; for “HMANTSAVIKQPGLVKLFAQHFVRNGFNAMKAAEAAGFVRPSPTFVRNLADSKPVKDAISELLGPYNDA”, 0.22. Regarding “HMANWRVGQTINALVSDRMPSGGLLLTVGRQSFVTTRDIPVQPGARIMLEVQQVEPKLVLRLVSA”, the “soluble fraction (log2)” value was -0.236. Under “HMAPADLSPEERVVLDALALEPVHVDALAAKLGRRSEELLTSLTLMEMRGLAVAHAGSRYSRATMT” stands -0.934. For “HMAPEEIPLDRVVRLVEQGRVESIVVTGERLEVTLQNGTVYGSTKENGVGFMETLDRYQVPLEQRDFSYEV” the value was -0.72; for “HMAPELRSDAQMRRLWALAKENGLDEVGFRAFISDATGREVESTKSLTATEAHRLIEELEAP”, -0.758. In the case of “HMAPEPFIVQITASSLNVRKGPGTSYAVAQTVSKGQVFTIVQQQGGWGKLKSGAGWISLKYTAR”, the “soluble fraction (log2)” value was -0.0269. On to “HMAPEQWYVLTSGQLPKGPYRLRHIVAMSKGDNWLVARKGAEQWTPLRHLPEFRQAQEANEYIQAIS”, for which the “soluble fraction (log2)” value was -0.122. Consider “HMAPFSGVEPREWDSLVERGRQSGEVHAEDVTHVLRHVELTGDVLTDVQSKMAEHGITIDDA”, for which the “soluble fraction (log2)” value is -0.0344. Under “HMAPGASEVPDLTSLPAREALLRLTKLGLLPEMEGTGRLVRQQPAAGTRVPKGSKVHLVFEPG” stands 0.0438. For “HMAPIEVPYNVFRQQVVEGNVESVATRADTVQGYFETPVTLPARPDAAAAEPVTVERFSTTLPSF” the value was 0.00217.
